This note sets out measurements from article PMC2806190 (Cell, 2009).

For assay [1], the target named is Dsl1 (residues 1–754) (S. cerevisiae) (UniProt P53847).
For assay [2], the target named is Sec39 (residues 1–709) (S. cerevisiae) (UniProt Q12745).
The target in assay [3] is T1, Sec39 (residues 1–709) (S. cerevisiae, UniProt Q12745 1-709).
T1 sequence (looked up): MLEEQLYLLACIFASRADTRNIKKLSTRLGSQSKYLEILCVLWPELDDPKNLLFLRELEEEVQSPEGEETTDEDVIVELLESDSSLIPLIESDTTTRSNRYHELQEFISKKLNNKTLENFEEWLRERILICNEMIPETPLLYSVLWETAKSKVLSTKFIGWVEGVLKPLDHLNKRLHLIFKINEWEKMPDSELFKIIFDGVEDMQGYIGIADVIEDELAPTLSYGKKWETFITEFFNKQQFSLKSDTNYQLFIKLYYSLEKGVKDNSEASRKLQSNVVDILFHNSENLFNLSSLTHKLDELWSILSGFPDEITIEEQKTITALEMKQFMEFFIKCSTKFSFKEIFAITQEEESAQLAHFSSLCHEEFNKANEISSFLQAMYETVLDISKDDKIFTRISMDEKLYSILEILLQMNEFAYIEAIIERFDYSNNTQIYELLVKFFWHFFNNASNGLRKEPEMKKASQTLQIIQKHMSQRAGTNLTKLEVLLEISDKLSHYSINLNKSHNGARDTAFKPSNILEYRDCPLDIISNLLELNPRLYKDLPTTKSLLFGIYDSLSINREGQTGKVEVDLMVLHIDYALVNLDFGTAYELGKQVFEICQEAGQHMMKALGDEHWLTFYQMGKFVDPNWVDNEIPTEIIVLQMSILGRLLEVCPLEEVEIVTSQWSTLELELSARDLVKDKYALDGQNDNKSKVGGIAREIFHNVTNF
Description: SEC. (In general: In gel filtration, larger molecules generally elute earlier.)

The target in assay [4] is T1, Sec39 (residues 1–709). In words: co-purification.
In the next assay the target is T2, His-tagged Sec39 (S. cerevisiae, UniProt Q12745 1-709).
T2 sequence (looked up): T1 sequence (looked up)
Description: co-purification.

The target of the next assay is T3, Sec39 residues 1–392 (S. cerevisiae, UniProt Q12745 1-392).
T3 sequence (looked up): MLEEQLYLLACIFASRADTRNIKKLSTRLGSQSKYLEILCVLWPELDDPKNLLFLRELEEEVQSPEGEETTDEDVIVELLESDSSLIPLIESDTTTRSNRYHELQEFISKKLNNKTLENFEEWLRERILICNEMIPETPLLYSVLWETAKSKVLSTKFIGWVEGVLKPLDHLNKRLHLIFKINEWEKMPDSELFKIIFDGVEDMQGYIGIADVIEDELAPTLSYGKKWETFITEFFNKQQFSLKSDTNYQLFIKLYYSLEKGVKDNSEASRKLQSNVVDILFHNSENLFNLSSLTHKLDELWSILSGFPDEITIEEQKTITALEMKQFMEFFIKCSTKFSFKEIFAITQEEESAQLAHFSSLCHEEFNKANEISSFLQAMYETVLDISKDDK
In words: SEC.

As for “Tip20 (residues 1–701) (from UniProt P33891 1-701) (natural protein)”, the Kd in assay [1] came to 100 nM. Consider “Dsl1 (residues 1–754) (from UniProt P53847 1-754) (natural protein)”, for which the dissociation constant (Kd) in assay [2] was found to be 10 nM.

B1: N-terminal peptide of Use1 (residues 1–35) (peptide, UniProt P53146 1-35, looked up)
peptide: MAETSNDPFLSYVLSSKQLTNLNRLRRKAVTKQLG
In the case of B1, in the assay with Sec39 (residues 1–709) [3], the binding result is “binds”.

B2: Use1 cytoplasmic domain (residues 1–212), TF tag removed (domain or fragment, S. cerevisiae, UniProt P53146 1-212, looked up)
chain: MAETSNDPFLSYVLSSKQLTNLNRLRRKAVTKQLGSSDDNKVSEEFLRYQHTYQREAFEYLQTKHDAHKIMESQYEQYQSSSKTRRYSIDLDSVDAVDTESQTEYPNEEFIDRNEDSEAVMELRKRLLGKGQNKGLGYETTKSVDRQIEDQDTLQQDLIQDMSKLVGSLKQGAVAFQSALDEDKQVLGAAEIGIQVASQGLMDVSGKLRKYD
Take B2: the binding result in the assay with Sec39 (residues 1–709) [4] and with His-tagged Sec39 was “binds” each time.

B3: TF-Use1 (residues 1–212 fused to trigger factor) (domain or fragment, S. cerevisiae, UniProt P53146 1-212, looked up)
chain: B2 chain
On to B3, for which the binding result with Sec39 residues 1–392 was “binds”.

As a reminder, the Kd is a measure of binding affinity in units of concentration. High values mean a looser complex, low ones a tighter complex.
